Experimental findings from patent publication US20100047245A1 are described below.

The target of assay [1] is recombinant purified human IL-12 p70 (human) (UniProt P29459). The experiment in a line: cell-based or functional assay.
The target is the same in assay [2]. As to the kind of experiment: SPR (Biacore) per Example 1.1.B, recombinant human IL-12p70.
Assay [3] has the same target. The experiment in a line: SPR (Biacore) per Example 1.1.B; antigen not restated, taken as human IL-12 p70.
Assay [4] shares this target. As to the kind of experiment: competition ELISA on plate-coated human IL-12; competes 0.8 µg/ml biotinylated 8E1; Average.
Assay [5] has the same target. The experiment in a line: competition ELISA on plate-coated human IL-12; competes 0.8 µg/ml biotinylated 8E1; Expt. 1.
The target is the same in assay [6]. The experiment in a line: competition ELISA on plate-coated human IL-12; competes 0.8 µg/ml biotinylated 8E1; Expt. 2.
Assay [7] shares this target. As to the kind of experiment: competition ELISA on plate-coated human IL-12; competes 0.8 µg/ml biotinylated 8E1; Expt. 3.
Assay [8] has the same target. As to the kind of experiment: SPR (BIAcore) per Example 1.1.B, recombinant human IL-12p70.
For assay [9] the target is unchanged. As to the kind of experiment: SPR (Biacore 3000), mAb captured via goat anti-mouse IgG Fc, human IL-12 p70 in solution.
For assay [10] the target is unchanged. As to the kind of experiment: SPR (BIAcore) per Example 1.1.B; antigen not restated, taken as human IL-12 p70.

Chain of recombinant purified human IL-12 p70 (human) (chain, as listed by the source, form in doubt, chain 1 of 2): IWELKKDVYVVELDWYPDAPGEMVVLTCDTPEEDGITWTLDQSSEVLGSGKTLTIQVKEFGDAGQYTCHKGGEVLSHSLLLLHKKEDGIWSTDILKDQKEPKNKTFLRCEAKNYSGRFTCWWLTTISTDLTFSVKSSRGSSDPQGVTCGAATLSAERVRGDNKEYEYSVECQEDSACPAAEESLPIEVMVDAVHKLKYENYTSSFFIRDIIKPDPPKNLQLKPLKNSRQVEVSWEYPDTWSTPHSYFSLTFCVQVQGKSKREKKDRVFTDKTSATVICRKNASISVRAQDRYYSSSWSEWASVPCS
Chain of recombinant purified human IL-12 p70 (human) (P29459 23-219, form in doubt, chain 2 of 2): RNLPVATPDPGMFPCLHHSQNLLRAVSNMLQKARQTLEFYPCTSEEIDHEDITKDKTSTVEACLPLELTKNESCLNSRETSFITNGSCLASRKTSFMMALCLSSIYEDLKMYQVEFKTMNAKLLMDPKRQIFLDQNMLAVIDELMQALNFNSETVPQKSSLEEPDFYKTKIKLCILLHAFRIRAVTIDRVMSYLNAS

B1: 8E1.1 (antibody, human IgG1, kappa, L234A L235A, V domains shown)
VH: EVQLVESGGGLVQPGGSLRLSCAASGFTFSDYGMVWVRQAPGKGLEWVGSISSGSSNIYYADTVKGRFTISRDDSKNSLYLQMNSLKTEDTAVYYCARNPYWGQGTTVTVSS
VL: DIQMTQSPSSLSASVGDRVTITCKASQNVGTNVAWYQQKPEKAPKSLIYSASHRYSGVPSRFSGSGSGTDFTLTISSLQPEDFATYYCQQYNSYPLTFGGGTKVEIKR
On to B1, for which the Av. IC50 (nM) Hu IL-12; PHA blast IFN-gamma induction assay in [1] was determined as 2.8 nM. Besides, in assay [2], the dissociation constant (Kd) was 1.7 nM, the koff worked out at 0.00087 s⁻¹ and the kon was 520000 M⁻¹ s⁻¹.

B2: 8E1.6 (antibody, V domains shown)
VH: EVQLVESGGGLVQPGGSLRLSCAASGFTFSDYGMVWVRQAPGKGLEWVASISSGSSNIYYADTVKGRFTISRDDAKNTLYLQMNSLRAEDTAVYYCARNPYWGQGTLVTVSS
VL: DIQMTQSPSSLSASVGDRVTITCKASQNVGTNVAWYQQKPGKAPKGLIYSASHRYSGVPSRFSGSGSGTDFTLTISSLQPEDFATYYCQQYNSYPLTFGGGTKVEIKR
Turning to B2, the dissociation constant Kd in [3] was determined as 0.046 nM. Moreover, in [3], the koff was found to be 8e-05 s⁻¹. Further, in assay [3], the kon turned out to be 1.7e+06 M⁻¹ s⁻¹. For the same molecule, the IC50 worked out at 2.1 µg/mL in assay [4], 2.25 µg/mL in [5], 2.43 µg/mL in [6] and 1.61 µg/mL in assay [7].

B3: 8E1.4 (antibody, IgG1, V domains shown)
VH: EVQLVESGGGLVQPGGSLRLSCAASGFTFSDYGMVWVRQAPGKGLEWVASISSGSSNIYYADTVKGRFTISRDNAKNTLYLQMNSLRAEDTAVYYCARNPYWGQGTLVTVSS
VL: DIQMTQSPSSLSASVGDRVTITCKASQNVGTNVAWYQQKPGKAPKGLIYSASHRYSGVPSRFSGSGSGTDFTLTISSLQPEDFATYYCQQYNSYPLTFGGGTKVEIKR
Regarding B3, the Av. IC50(nM) huIL-12; PHA blast IFN-gamma induction assay in assay [1] turned out to be 12 nM. In assay [3], the Kd was determined as 1.3 nM, the off-rate constant (koff) is 0.001 s⁻¹ and the kon is 800000 M⁻¹ s⁻¹. In addition, the IC50 in assay [7] came out at 8.33 µg/mL.

B4: 8E1.5 (antibody, IgG1, V domains shown)
VH: EVQLVESGGGLVQPGGSLRLSCAASGFTFSDYGMVWVRQAPGKGLEWVASISSGSSNIYYADTVKGRFTISRDNAKNTLYLQMNSLRAEDTAVYYCARNPYWGQGTLVTVSS
VL: DIQMTQSPSSLSASVGDRVTITCKASQNVGTNVAWYQQKPGKAPKGLIYSASHRYSGVPDRFSGSGSGTDFTLTISSLQPEDFATYYCQQYNSYPLTFGGGTKVEIKR
As for B4, the Av. IC50(nM) huIL-12; PHA blast IFN-gamma induction assay in assay [1] is 8 nM. For the same molecule, in assay [3], the dissociation constant (Kd) stood at 0.75 nM, the koff was determined as 0.00124 s⁻¹ and the kon turned out to be 1.6e+06 M⁻¹ s⁻¹. For the same molecule, the IC50 in assay [7] was 13.4 µg/mL.

B5: 1A6.9 (antibody, human IgG1, kappa, L234A L235A, V domains shown)
VH: EVTLRESGPALVKPTQTLTLTCTFSGFSLSTSGMGVSWIRQPPGKALEWLAHIWWDGDNYYNPSLKSRLTISKDTSKNQVVLTMTNMDPVDTATYYCARRTRVNYAMDYWGQGTTVTVSS
VL: SVVMTQSPDSLAVSLGERATINCKASQSVSNDVAWFQQKPGQPPKLLIYYASNRYTGVPDRFSGSGYGTDFTLTISSLQAEDVAVYYCQQDYNSPWTFGGGTKVEIKR
As for B5, the Av. IC50(nM) huIL-12; PHA blast IFN-gamma induction assay in assay [1] was 0.15 nM. For the same molecule, in [8], the dissociation constant Kd is less than 0.01 nM, the koff was less than 1e-05 s⁻¹ and the on-rate constant (kon) came to 350000 M⁻¹ s⁻¹.

B6: 8E1 (antibody, V domains shown)
VH: EVKLVESGGGLVQPGGSRKLSCAASGFTFSDYGMVWVRQAPGKGLEWVASISSGSSNIYYADTVKGRFTISRDDPNNTLFLQMRSLRSEDTAMYYCARNPYWGQGTTLTVSS
VL: DIVMTQSQKFMSTSVGDRVSVTCKASQNVGTNVAWYQQKPGQSPKGLIYSASHRYSGVPDRFAGSGSGTDFTLTISNVQSEDLAEYFCQQYNSYPLTFGGGTKLELKR
With B6, the Average IC50 (nM) Human IL-12; PHA blast IFN-gamma induction assay in assay [1] was 0.19 nM. The Kd in [9] stood at 0.074 nM. The dissociation rate constant (koff) in assay [9] stood at 5.1e-05 s⁻¹. For the same molecule, in assay [9], the kon came to 690000 M⁻¹ s⁻¹. Further, the half-inhibitory concentration (IC50) in assay [4] worked out at 2.56 µg/mL; in [5], 2.63 µg/mL; in assay [6], 2.78 µg/mL; in assay [7], 2.28 µg/mL.

B7: 8E1.3 (antibody, human IgG1, kappa, L234A L235A, V domains shown)
VH: EVKLVESGGGLVQPGGSLRLSCAASGFTFSDYGMVWVRQAPGKGLEWVASISSGSSNIYYADTVKGRFTISRDDSKNTLYLQMNSLKTEDTAVYYCARNPYWGQGTTVTVSS
VL: DIVMTQSPSSLSASVGDRVTITCKASQNVGTNVAWYQQKPEKAPKSLIYSASHRYSGVPSRFSGSGSGTDFTLTISSLQPEDFATYYCQQYNSYPLTFGGGTKVEIKR
On to B7, for which the Av. IC50(nM) huIL-12; PHA blast IFN-gamma induction assay in assay [1] came out at 10 nM. In assay [8], the equilibrium dissociation constant (Kd) turned out to be 0.76 nM, the koff came out at 0.001 s⁻¹ and the association rate constant (kon) was 1.3e+06 M⁻¹ s⁻¹.

B8: 1A6.4 (antibody, human IgG1, V domains shown)
VH: QVTLKESGPGILKPSQTLSLTCSFSGFSLSTSGMGVSWIRQPSGKGLEWLAHIWWDGDNYYNPSLKSQLTISKDTSRNQVFLRIATVDTADTATYYCARRTRVNYAMDYWGQGTSVTVSS
VL: EIVMTQSPATLSVSPGERATLSCKASQSVSNDVAWYQQKPGQAPRLLIYYASNRYTGIPARFSGSGSGTEFTLTISSLQSEDFAVYYCQQDYNSPWTFGGGTKVEIKR
As to B8, the Av. IC50(nM) huIL-12; PHA blast IFN-gamma induction assay in assay [1] was determined as 2.1 nM. For the same molecule, in assay [10], the Kd was 1 nM, the koff was 0.00011 s⁻¹ and the kon came out at 110000 M⁻¹ s⁻¹.
